Drawing on the supplement of paper PMC6755084, this text covers fraction ligated for 97 sequences.

For this data set, the system named is F1*sub RNA substrate (template-directed ligation). In words: fraction ligated after 30 min (ligated reads / total reads); higher = more ligase activity; sequences stand for … in GAGACCGCAACTGAAAAGTTGT…AGTTCTGCACGTAGAAGCAAAAGGC
Conditions: 42 °C. A digest of the protocol: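 Oligo-pool templates underwent PCR amplification, T7 transcription and gel purification to yield ribozyme variants. Gel-separated ligated and unligated bands were converted to complementary DNA with barcoded primers and sequenced on a MiSeq, keeping core bases of quality ≥20. The ratio of ligated reads to total reads gave the fraction ligated for every variant.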
Sequence “TATCACTTGTCGTAAGATTTGGATGGGTTGA [3d2106]” came in with a fraction ligated of 0.815. “TATCACTTGTCGTAAGCACTGGATGGGTTGA [3d2128]” came in with a fraction ligated of 0.771. For “TATCACTTGTCGTAAGCACTTGATGGGTTGA [3d2129]”, the fraction ligated was 0.743.

Sequence “TATCACTTGTCGTAAGCACTTGGAGGGTTGA [3d2131]” showed a fraction ligated of 0.072. With “TATCACTTGTCGTAAGCACTTGGATGGGTTA [3d2133]” the figure was 0.565; with “TATCACTTGTCGTAAGCACTTGGATGGGTTG [3d2134]”, 0.76; with “TATCACTTGTCGTAAGCACTTGGATGGGTTGA [2d247]”, 0.756. For “TATCACTTGTCGTAAGCACTTGGATGGTTGA [3d2132]” the value was 0.108; for “TATCACTTGTCGTAAGCACTTGGTGGGTTGA [3d2130]”, 0.0887. “TATCACTTGTCGTAAGCACTTTATGGGTTGA [3d2135]” gave a fraction ligated of 0.134.

As for “TATCACTTGTCGTAAGCACTTTGAGGGTTGA [3d2137]”, the fraction ligated was found to be 0.086.

The sequence “TATCACTTGTCGTAAGCACTTTGATGGGTTA [3d2139]” yielded a fraction ligated of 0.124. Sequence “TATCACTTGTCGTAAGCACTTTGATGGGTTG [3d2140]” had a fraction ligated of 0.677. For “TATCACTTGTCGTAAGCACTTTGATGGGTTGA [2d248]”, the fraction ligated was found to be 0.751.

For “TATCACTTGTCGTAAGCACTTTGATGGTTGA [3d2138]”, the fraction ligated is 0.157.

The sequence “TATCACTTGTCGTAAGCACTTTGGAGGGTTA [3d2146]” gave a fraction ligated of 0.134.

Regarding “TATCACTTGTCGTAAGCACTTTGGAGGGTTG [3d2147]”, the fraction ligated was 0.116.

The sequence “TATCACTTGTCGTAAGCACTTTGGAGGGTTGA [2d250]” gave a fraction ligated of 0.157. For “TATCACTTGTCGTAAGCACTTTGGAGGTTGA [3d2145]” the value was 0.143. Sequence “TATCACTTGTCGTAAGCACTTTGGATGGGTT [3d2150]” had a fraction ligated of 0.534. With “TATCACTTGTCGTAAGCACTTTGGATGGGTTA [2d252]” the figure was 0.737; with “TATCACTTGTCGTAAGCACTTTGGATGGGTTG [2d253]”, 0.771. On to “TATCACTTGTCGTAAGCACTTTGGATGGTTA [3d2148]”, for which the fraction ligated worked out at 0.153. With “TATCACTTGTCGTAAGCACTTTGGATGGTTG [3d2149]”, the fraction ligated was found to be 0.17. For “TATCACTTGTCGTAAGCACTTTGGATGGTTGA [2d251]” the value was 0.216; for “TATCACTTGTCGTAAGCACTTTGGGGGTTGA [3d2141]”, 0.129; for “TATCACTTGTCGTAAGCACTTTGGTGGGTTA [3d2143]”, 0.0888.

For the sequence “TATCACTTGTCGTAAGCACTTTGGTGGGTTG [3d2144]”, the fraction ligated turned out to be 0.0518. In turn, “TATCACTTGTCGTAAGCACTTTGGTGGGTTGA [2d249]” displayed a fraction ligated of 0.14. “TATCACTTGTCGTAAGCACTTTGGTGGTTGA [3d2142]” yielded a fraction ligated of 0.118. In turn, “TATCACTTGTCGTAAGCACTTTGTGGGTTGA [3d2136]” came in with a fraction ligated of 0.0369.

“TATCACTTGTCGTAAGCATTGGATGGGTTGA [3d2121]”: the fraction ligated is 0.756. Regarding “TATCACTTGTCGTAAGCATTTGATGGGTTGA [3d2122]”, the fraction ligated amounted to 0.408. The sequence “TATCACTTGTCGTAAGCATTTGGAGGGTTGA [3d2124]” displayed a fraction ligated of 0.0316. “TATCACTTGTCGTAAGCATTTGGATGGGTTA [3d2126]” displayed a fraction ligated of 0.784. “TATCACTTGTCGTAAGCATTTGGATGGGTTG [3d2127]” had a fraction ligated of 0.833.

In the case of “TATCACTTGTCGTAAGCATTTGGATGGGTTGA [2d246]”, the fraction ligated was determined as 0.849. For “TATCACTTGTCGTAAGCATTTGGATGGTTGA [3d2125]” the value was 0.17; for “TATCACTTGTCGTAAGCATTTGGTGGGTTGA [3d2123]”, 0.0465; for “TATCACTTGTCGTAAGCCTTGGATGGGTTGA [3d2114]”, 0.778. In the case of “TATCACTTGTCGTAAGCCTTTGATGGGTTGA [3d2115]”, the fraction ligated was 0.718.

As to “TATCACTTGTCGTAAGCCTTTGGAGGGTTGA [3d2117]”, the fraction ligated worked out at 0.252. With “TATCACTTGTCGTAAGCCTTTGGATGGGTTA [3d2119]” the figure was 0.79; with “TATCACTTGTCGTAAGCCTTTGGATGGGTTG [3d2120]”, 0.782. “TATCACTTGTCGTAAGCCTTTGGATGGGTTGA [2d245]” showed a fraction ligated of 0.781.

In turn, “TATCACTTGTCGTAAGCCTTTGGATGGTTGA [3d2118]” yielded a fraction ligated of 0.364. Turning to “TATCACTTGTCGTAAGCCTTTGGTGGGTTGA [3d2116]”, the fraction ligated worked out at 0.243.

With “TATCACTTGTCGTAAGCTTTGGATGGGTTGA [3d2105]”, the fraction ligated came out at 0.759. Consider “TATCACTTGTCGTACACTTTGGATGGGTTGA [3d1981]”, for which the fraction ligated is 0.797. For “TATCACTTGTCGTAGAACTTGGATGGGTTGA [3d2014]” the value was 0.845; for “TATCACTTGTCGTAGAACTTTGATGGGTTGA [3d2015]”, 0.848.

Sequence “TATCACTTGTCGTAGAACTTTGGAGGGTTGA [3d2017]” displayed a fraction ligated of 0.119. Consider “TATCACTTGTCGTAGAACTTTGGATGGGTTA [3d2019]”, for which the fraction ligated came to 0.854.

Regarding “TATCACTTGTCGTAGAACTTTGGATGGGTTG [3d2020]”, the fraction ligated turned out to be 0.854.

“TATCACTTGTCGTAGAACTTTGGATGGGTTGA [2d224]” registered a fraction ligated of 0.864.

With “TATCACTTGTCGTAGAACTTTGGATGGTTGA [3d2018]”, the fraction ligated was 0.206. As to “TATCACTTGTCGTAGAACTTTGGTGGGTTGA [3d2016]”, the fraction ligated came out at 0.138.

Sequence “TATCACTTGTCGTAGAATTTGGATGGGTTGA [3d2013]” yielded a fraction ligated of 0.832. The sequence “TATCACTTGTCGTAGACACTGGATGGGTTGA [3d2035]” had a fraction ligated of 0.778. “TATCACTTGTCGTAGACACTTGATGGGTTGA [3d2036]”: the fraction ligated was found to be 0.657. “TATCACTTGTCGTAGACACTTGGAGGGTTGA [3d2038]” gave a fraction ligated of 0.0635. The sequence “TATCACTTGTCGTAGACACTTGGATGGGTTA [3d2040]” came in with a fraction ligated of 0.757. The sequence “TATCACTTGTCGTAGACACTTGGATGGGTTG [3d2041]” yielded a fraction ligated of 0.782. With “TATCACTTGTCGTAGACACTTGGATGGGTTGA [2d227]” the figure was 0.803. “TATCACTTGTCGTAGACACTTGGATGGTTGA [3d2039]” had a fraction ligated of 0.095. Sequence “TATCACTTGTCGTAGACACTTGGTGGGTTGA [3d2037]” registered a fraction ligated of 0.105.

“TATCACTTGTCGTAGACACTTTATGGGTTGA [3d2042]” had a fraction ligated of 0.128. In turn, “TATCACTTGTCGTAGACACTTTGAGGGTTGA [3d2044]” showed a fraction ligated of 0.0374. For “TATCACTTGTCGTAGACACTTTGATGGGTTA [3d2046]” the value was 0.156; for “TATCACTTGTCGTAGACACTTTGATGGGTTG [3d2047]”, 0.754. Turning to “TATCACTTGTCGTAGACACTTTGATGGGTTGA [2d228]”, the fraction ligated was found to be 0.789.

In turn, “TATCACTTGTCGTAGACACTTTGATGGTTGA [3d2045]” gave a fraction ligated of 0.0405. Turning to “TATCACTTGTCGTAGACACTTTGGAGGGTTA [3d2053]”, the fraction ligated is 0.0985.

Sequence “TATCACTTGTCGTAGACACTTTGGAGGGTTG [3d2054]” came in with a fraction ligated of 0.0621. “TATCACTTGTCGTAGACACTTTGGAGGGTTGA [2d230]” registered a fraction ligated of 0.167. The sequence “TATCACTTGTCGTAGACACTTTGGAGGTTGA [3d2052]” came in with a fraction ligated of 0.072. “TATCACTTGTCGTAGACACTTTGGATGGGTT [3d2057]”: the fraction ligated worked out at 0.819. For “TATCACTTGTCGTAGACACTTTGGATGGGTTA [2d232]” the value was 0.825.

For the sequence “TATCACTTGTCGTAGACACTTTGGATGGGTTG [2d233]”, the fraction ligated worked out at 0.843.

Take “TATCACTTGTCGTAGACACTTTGGATGGTTA [3d2055]”: the fraction ligated stood at 0.406. “TATCACTTGTCGTAGACACTTTGGATGGTTG [3d2056]” came in with a fraction ligated of 0.452. With “TATCACTTGTCGTAGACACTTTGGATGGTTGA [2d231]”, the fraction ligated was found to be 0.678. As to “TATCACTTGTCGTAGACACTTTGGGGGTTGA [3d2048]”, the fraction ligated worked out at 0.0891. As for “TATCACTTGTCGTAGACACTTTGGTGGGTTA [3d2050]”, the fraction ligated worked out at 0.0674. In turn, “TATCACTTGTCGTAGACACTTTGGTGGGTTG [3d2051]” came in with a fraction ligated of 0.101. In the case of “TATCACTTGTCGTAGACACTTTGGTGGGTTGA [2d229]”, the fraction ligated is 0.287. As for “TATCACTTGTCGTAGACACTTTGGTGGTTGA [3d2049]”, the fraction ligated was found to be 0.0676. As for “TATCACTTGTCGTAGACACTTTGTGGGTTGA [3d2043]”, the fraction ligated turned out to be 0.0334.

As to “TATCACTTGTCGTAGACATTGGATGGGTTGA [3d2028]”, the fraction ligated amounted to 0.815. With “TATCACTTGTCGTAGACATTTGATGGGTTGA [3d2029]” the figure was 0.309; with “TATCACTTGTCGTAGACATTTGGAGGGTTGA [3d2031]”, 0.0197. With “TATCACTTGTCGTAGACATTTGGATGGGTTA [3d2033]”, the fraction ligated was determined as 0.799. As to “TATCACTTGTCGTAGACATTTGGATGGGTTG [3d2034]”, the fraction ligated was 0.815. In the case of “TATCACTTGTCGTAGACATTTGGATGGGTTGA [2d226]”, the fraction ligated was determined as 0.842. In the case of “TATCACTTGTCGTAGACATTTGGATGGTTGA [3d2032]”, the fraction ligated was determined as 0.147. The sequence “TATCACTTGTCGTAGACATTTGGTGGGTTGA [3d2030]” registered a fraction ligated of 0.0449.

The sequence “TATCACTTGTCGTAGACCTTGGATGGGTTGA [3d2021]” had a fraction ligated of 0.79.
